Reference: article PMC2572732, “Structural Coupling of SH2-Kinase Domains Links Fes and Abl Substrate Recognition and Kinase Activation” (Cell, 2008)

B1: WT: Wild-type full-length human Fes with N-terminal Flag epitope (protein, UniProt P07332 1-822, looked up)
chain: MGFSSELCSPQGHGVLQQMQEAELRLLEGMRKWMAQRVKSDREYAGLLHHMSLQDSGGQSRAISPDSPISQSWAEITSQTEGLSRLLRQHAEDLNSGPLSKLSLLIRERQQLRKTYSEQWQQLQQELTKTHSQDIEKLKSQYRALARDSAQAKRKYQEASKDKDRDKAKDKYVRSLWKLFAHHNRYVLGVRAAQLHHQHHHQLLLPGLLRSLQDLHEEMACILKEILQEYLEISSLVQDEVVAIHREMAAAAARIQPEAEYQGFLRQYGSAPDVPPCVTFDESLLEEGEPLEPGELQLNELTVESVQHTLTSVTDELAVATEMVFRRQEMVTQLQQELRNEEENTHPRERVQLLGKRQVLQEALQGLQVALCSQAKLQAQQELLQTKLEHLGPGEPPPVLLLQDDRHSTSSSEQEREGGRTPTLEILKSHISGIFRPKFSLPPPLQLIPEVQKPLHEQLWYHGAIPRAEVAELLVHSGDFLVRESQGKQEYVLSVLWDGLPRHFIIQSLDNLYRLEGEGFPSIPLLIDHLLSTQQPLTKKSGVVLHRAVPKDKWVLNHEDLVLGEQIGRGNFGEVFSGRLRADNTLVAVKSCRETLPPDLKAKFLQEARILKQYSHPNIVRLIGVCTQKQPIYIVMELVQGGDFLTFLRTEGARLRVKTLLQMVGDAAAGMEYLESKCCIHRDLAARNCLVTEKNVLKISDFGMSREEADGVYAASGGLRQVPVKWTAPEALNYGRYSSESDVWSFGILLWETFSLGASPYPNLSNQQTREFVEKGGRLPCPELCPDAVFRLMEQCWAYEPGQRPSFSTIYQELQSIRKRHR
modifications: full-length N-terminal Flag tag
B2: G/V: Fes mutant, conserved glycine residue (G463) mutated to valine (protein, UniProt P07332 1-822, looked up, variant G463V)
Tyrosine-protein kinase …: MGFSSELCSPQGHGVLQQMQEAELRLLEGMRKWMAQRVKSDREYAGLLHHMSLQDSGGQSRAISPDSPISQSWAEITSQTEGLSRLLRQHAEDLNSGPLSKLSLLIRERQQLRKTYSEQWQQLQQELTKTHSQDIEKLKSQYRALARDSAQAKRKYQEASKDKDRDKAKDKYVRSLWKLFAHHNRYVLGVRAAQLHHQHHHQLLLPGLLRSLQDLHEEMACILKEILQEYLEISSLVQDEVVAIHREMAAAAARIQPEAEYQGFLRQYGSAPDVPPCVTFDESLLEEGEPLEPGELQLNELTVESVQHTLTSVTDELAVATEMVFRRQEMVTQLQQELRNEEENTHPRERVQLLGKRQVLQEALQGLQVALCSQAKLQAQQELLQTKLEHLGPGEPPPVLLLQDDRHSTSSSEQEREGGRTPTLEILKSHISGIFRPKFSLPPPLQLIPEVQKPLHEQLWYHVAIPRAEVAELLVHSGDFLVRESQGKQEYVLSVLWDGLPRHFIIQSLDNLYRLEGEGFPSIPLLIDHLLSTQQPLTKKSGVVLHRAVPKDKWVLNHEDLVLGEQIGRGNFGEVFSGRLRADNTLVAVKSCRETLPPDLKAKFLQEARILKQYSHPNIVRLIGVCTQKQPIYIVMELVQGGDFLTFLRTEGARLRVKTLLQMVGDAAAGMEYLESKCCIHRDLAARNCLVTEKNVLKISDFGMSREEADGVYAASGGLRQVPVKWTAPEALNYGRYSSESDVWSFGILLWETFSLGASPYPNLSNQQTREFVEKGGRLPCPELCPDAVFRLMEQCWAYEPGQRPSFSTIYQELQSIRKRHR
B3: E469K: Fes E469K mutant (protein, UniProt P07332 1-822, looked up, variant E469K)
Tyrosine-protein kinase …: MGFSSELCSPQGHGVLQQMQEAELRLLEGMRKWMAQRVKSDREYAGLLHHMSLQDSGGQSRAISPDSPISQSWAEITSQTEGLSRLLRQHAEDLNSGPLSKLSLLIRERQQLRKTYSEQWQQLQQELTKTHSQDIEKLKSQYRALARDSAQAKRKYQEASKDKDRDKAKDKYVRSLWKLFAHHNRYVLGVRAAQLHHQHHHQLLLPGLLRSLQDLHEEMACILKEILQEYLEISSLVQDEVVAIHREMAAAAARIQPEAEYQGFLRQYGSAPDVPPCVTFDESLLEEGEPLEPGELQLNELTVESVQHTLTSVTDELAVATEMVFRRQEMVTQLQQELRNEEENTHPRERVQLLGKRQVLQEALQGLQVALCSQAKLQAQQELLQTKLEHLGPGEPPPVLLLQDDRHSTSSSEQEREGGRTPTLEILKSHISGIFRPKFSLPPPLQLIPEVQKPLHEQLWYHGAIPRAKVAELLVHSGDFLVRESQGKQEYVLSVLWDGLPRHFIIQSLDNLYRLEGEGFPSIPLLIDHLLSTQQPLTKKSGVVLHRAVPKDKWVLNHEDLVLGEQIGRGNFGEVFSGRLRADNTLVAVKSCRETLPPDLKAKFLQEARILKQYSHPNIVRLIGVCTQKQPIYIVMELVQGGDFLTFLRTEGARLRVKTLLQMVGDAAAGMEYLESKCCIHRDLAARNCLVTEKNVLKISDFGMSREEADGVYAASGGLRQVPVKWTAPEALNYGRYSSESDVWSFGILLWETFSLGASPYPNLSNQQTREFVEKGGRLPCPELCPDAVFRLMEQCWAYEPGQRPSFSTIYQELQSIRKRHR
B4: EER/KKE: Fes triple mutant: EE/KK plus R609 in αC helix to glutamate (protein, UniProt P07332 1-822, looked up, variant E469K E472K R609E)
Tyrosine-protein kinase …: MGFSSELCSPQGHGVLQQMQEAELRLLEGMRKWMAQRVKSDREYAGLLHHMSLQDSGGQSRAISPDSPISQSWAEITSQTEGLSRLLRQHAEDLNSGPLSKLSLLIRERQQLRKTYSEQWQQLQQELTKTHSQDIEKLKSQYRALARDSAQAKRKYQEASKDKDRDKAKDKYVRSLWKLFAHHNRYVLGVRAAQLHHQHHHQLLLPGLLRSLQDLHEEMACILKEILQEYLEISSLVQDEVVAIHREMAAAAARIQPEAEYQGFLRQYGSAPDVPPCVTFDESLLEEGEPLEPGELQLNELTVESVQHTLTSVTDELAVATEMVFRRQEMVTQLQQELRNEEENTHPRERVQLLGKRQVLQEALQGLQVALCSQAKLQAQQELLQTKLEHLGPGEPPPVLLLQDDRHSTSSSEQEREGGRTPTLEILKSHISGIFRPKFSLPPPLQLIPEVQKPLHEQLWYHGAIPRAKVAKLLVHSGDFLVRESQGKQEYVLSVLWDGLPRHFIIQSLDNLYRLEGEGFPSIPLLIDHLLSTQQPLTKKSGVVLHRAVPKDKWVLNHEDLVLGEQIGRGNFGEVFSGRLRADNTLVAVKSCRETLPPDLKAKFLQEAEILKQYSHPNIVRLIGVCTQKQPIYIVMELVQGGDFLTFLRTEGARLRVKTLLQMVGDAAAGMEYLESKCCIHRDLAARNCLVTEKNVLKISDFGMSREEADGVYAASGGLRQVPVKWTAPEALNYGRYSSESDVWSFGILLWETFSLGASPYPNLSNQQTREFVEKGGRLPCPELCPDAVFRLMEQCWAYEPGQRPSFSTIYQELQSIRKRHR
B5: E472K: Fes E472K mutant (protein, UniProt P07332 1-822, looked up, variant E472K)
Tyrosine-protein kinase …: MGFSSELCSPQGHGVLQQMQEAELRLLEGMRKWMAQRVKSDREYAGLLHHMSLQDSGGQSRAISPDSPISQSWAEITSQTEGLSRLLRQHAEDLNSGPLSKLSLLIRERQQLRKTYSEQWQQLQQELTKTHSQDIEKLKSQYRALARDSAQAKRKYQEASKDKDRDKAKDKYVRSLWKLFAHHNRYVLGVRAAQLHHQHHHQLLLPGLLRSLQDLHEEMACILKEILQEYLEISSLVQDEVVAIHREMAAAAARIQPEAEYQGFLRQYGSAPDVPPCVTFDESLLEEGEPLEPGELQLNELTVESVQHTLTSVTDELAVATEMVFRRQEMVTQLQQELRNEEENTHPRERVQLLGKRQVLQEALQGLQVALCSQAKLQAQQELLQTKLEHLGPGEPPPVLLLQDDRHSTSSSEQEREGGRTPTLEILKSHISGIFRPKFSLPPPLQLIPEVQKPLHEQLWYHGAIPRAEVAKLLVHSGDFLVRESQGKQEYVLSVLWDGLPRHFIIQSLDNLYRLEGEGFPSIPLLIDHLLSTQQPLTKKSGVVLHRAVPKDKWVLNHEDLVLGEQIGRGNFGEVFSGRLRADNTLVAVKSCRETLPPDLKAKFLQEARILKQYSHPNIVRLIGVCTQKQPIYIVMELVQGGDFLTFLRTEGARLRVKTLLQMVGDAAAGMEYLESKCCIHRDLAARNCLVTEKNVLKISDFGMSREEADGVYAASGGLRQVPVKWTAPEALNYGRYSSESDVWSFGILLWETFSLGASPYPNLSNQQTREFVEKGGRLPCPELCPDAVFRLMEQCWAYEPGQRPSFSTIYQELQSIRKRHR
B6: EE/KK: Fes double mutant, E469 and E472 to lysine (protein)
chain: WYHGAIPRAKVAKLLVHSGDFLVRESQGKQEYVLSVLWDGLPRHFIIQSLDNLYRLEGEGFPSIPLLIDHLLSTQQPLTKKSGVVLHRAV

system: Fes; GST-cortactin (residues 382–550); assay: In vivo kinase assay: Fes autophosphorylation and GST-cortactin phosphorylation in transfected HEK293T cells; type: cell-based, human; details: full-length Flag-Fes, HEK293T, 24 hr, western blot anti-pTyr; in words
Description: To pursue the relevance of the observed interdomain interactions, we studied the effects of mutating residues in the SH2-kinase interface on human Fes activity. To this end, we monitored Fes autophosphorylation and transphosphorylation activity in transfected cells, using cortactin (residues 382–550) fused to GST as an exogenous substrate (Figures 2A and 2B). In an effort to perturb the close interaction between the SH2 and kinase domains, we mutated the conserved glycine residue (G463) located in the tightly packed interface between the SH2 N terminus and the kinase β4/β5 loop to valine (mutant G/V). Introducing this bulky side chain would be expected to sterically hinder alignment of the SH2 and kinase domains, resulting in an altered domain packing. Wild-type (WT) and G/V mutant full-length human Fes, each with an N-terminal Flag epitope, were expressed in HEK293T cells together with GST-cortactin.
Wild-type p130^Gag-Fps and the RX15m and AX9m mutants ([Stone et al., 1984]) were subcloned into the vector pRK5-myc ([Winberg et al., 2000]). Full-length human Fes was cloned into the vector pCMV7.1-3xFlag (Sigma, St. Louis, MO). Site-directed mutagenesis was performed using the QuickChange® II XL Kit (Stratagene, La Jolla, CA) following the manufacturer's directions. A GST-tagged C-terminal fragment of human cortactin (residues 382–550, accession Q14247) was prepared by PCR from cDNA (accession BC008799) and cloned into pEBG vector (gift from C. Duckett, University of Michigan Medical School, Ann Arbor).
HEK293T cells were maintained in Dulbecco's modified Eagle's medium supplemented with 10% (vol/vol) fetal bovine serum, 100 units/ml penicillin G sodium, and 100 μg/ml streptomycin and incubated at 37°C, 5% CO2.
Flag-tagged Fes or Myc-tagged p130^Gag-Fps and mutants thereof were cotransfected with GST-cortactin into HEK293T cells. After 24 hr, cells were lysed with NP-40 cell lysis buffer (50 mM Tris-HCl [pH 7.5], 150 mM NaCl, 1% NP-40, and 1 mM EDTA) that contained 1 mM phenylmethylsulfonyl fluoride, 10 μg/ml leupeptin, 10 μg/ml aprotinin, and 10 μg/ml pepstatin A. Cell lysates, normalized for protein concentration, were used in anti-Flag M2 antibody-agarose (Sigma) or anti-Myc antibody immunoprecipitations or glutathione sepharose affinity precipitations. Associated proteins were resolved using SDS-PAGE and analyzed by western blotting using anti-Flag M2 (Sigma), anti-c-Myc 9E10 (Santa Cruz), HRP-conjugated anti-GST (Santa Cruz), or anti-pTyr 4G10 (Upstate) antibodies.

**Q.** With B1 as the molecule, how does the “Fes kinase activity (autophosphorylation and cortactin phosphorylation)” value (from here on “Fes kinase activity”) read?
**A.** The value was “active”.

**Q.** Which “Fes kinase activity” value does the source give for B2 here?
**A.** Its value is “completely inactive”.

**Q.** With B3 as the molecule, how does the “Fes kinase activity” value read?
**A.** Its value is “reduced tyrosine kinase activity”.

**Q.** How did the “Fes kinase activity” value turn out when B4 was run?
**A.** Its value is “regained kinase activity to a level approaching wild-type”.

**Q.** B5 was tested. Which “Fes kinase activity” value did it give?
**A.** The value was “not significantly impaired”.

**Q.** With B6 as the molecule, how does the “Fes kinase activity” value read?
**A.** The value was “strongly reduced Fes kinase activity”.
